Measured values: paper PMC6044281, “Cooperative Domain Formation by Homologous Motifs in HOIL-1L and SHARPIN Plays A Crucial Role in LUBAC Stabilization” (Cell reports, 2018)

B1: mSHARPIN_(163–301) [mouse] / GST-mHOIP_(466–630) [mouse] (parent complex)
chain 1: SSGNFKKEELATRLSQAIAGGDEKAAAQVAAVLAQHHVALNVQLMEAWFPPGPIRLQVTVEDATSVLSSSSSAHVSLKIHPHCSIAALQDQVFSEFGFPPAVQRWVIGRCLCMPERSLASYGVSQDGDPAFLYLLSAPR
chain 2: SCGDPEKQRQDKMRKEGLQLVSMIQEGETAGASPEEVFSALQYSGTEVPLQWLRSELSYVLEMVAELAGQQDPELGAFSCQEARKAWLDRHGNLDEAVEECVRARRRKVHELQSLGFGPKEGSLQALFQHGGDVARALTELQRQRLEPFHQRLWDRDPEPTPCWD
B2: mHOIL-1L_(1–140) [mouse] / GST-mHOIP_(466–630) [mouse] (parent complex)
chain 1: MDEKTKKAEEMALSLARAVAGGDEQAAIKYATWLAEQRVPLRVQVKPEVSPTQDIRLCVSVEDAYMHTVTIWLTVRPDMTVASLKDMVFLDYGFPPSLQQWVVGQRLARDQETLHSHGIRRNGDGAYLYLLSARNTSLNP
chain 2: B1 chain 2
B3: mHOIL-1L_(1–140) and mSHARPIN_(163–301) applied together [mouse] / GST-mHOIP_(466–630) [mouse] (parent complex)
chain 1: B2 chain 1
chain 2: B1 chain 1
chain 3: B1 chain 2
B4: MBP-mSHARPIN UBL_(163–301) [mouse] / mHOIL-1L_(1–189)-strep [mouse] (parent complex)
chain 1: B1 chain 1
chain 2: MDEKTKKAEEMALSLARAVAGGDEQAAIKYATWLAEQRVPLRVQVKPEVSPTQDIRLCVSVEDAYMHTVTIWLTVRPDMTVASLKDMVFLDYGFPPSLQQWVVGQRLARDQETLHSHGIRRNGDGAYLYLLSARNTSLNPQELQRQRQLRMLEDLGFKDLTLQSRGPLEPVLPKPRTNQEPGQPDAAPE

Variants of: B1
Test: SPR; response read at end of injection (about 180 s); GST-mHOIP D-UBA UBA1mut immobilized with anti-GST antibody; read off a plot

**Q.** With chain 2 SCGDPEKQAQDKMRKEGAQLASMIQEGETAGASPEEVFSALQYSGTEVPLQWLRSELSYVLEMVAELAGQQDPELGAFSCQEARKAWLDRHGNLDEAVEECVRARRRKVHELQSLGFGPKEGSLQALFQHGGDVARALTELQRQRLEPFHQRLWDRDPEPTPCWD [chain 2 R9A, chain 2 L18A, chain 2 V21A] as the variant, how does the response read?
**A.** Its response is about 0 RU.

Variants of: B1
Test: SPR; response read at end of injection (about 180 s); GST-mHOIP D-UBA UBA2mut immobilized with anti-GST antibody; read off a plot

**Q.** How did the response turn out when chain 2 SCGDPEKQRQDKMRKEGLQLVSMIQEGETAGASPEEVFSALQYSGTEVPLQWLRSELSYVLEMVAELAGQQDPELGAFSCQEARKAWLDRHGNLDEAVEECVRARRRKVHELQSLGFGPKEGSLQALFQHGGDVARALTELARQRAEPAHQRLWDRDPEPTPCWD [chain 2 Q142A, chain 2 L146A, chain 2 F149A] was run?
**A.** The response was about 5 RU.

Variants of: B2
Test: as above

**Q.** How did the response turn out when chain 2 SCGDPEKQRQDKMRKEGLQLVSMIQEGETAGASPEEVFSALQYSGTEVPLQWLRSELSYVLEMVAELAGQQDPELGAFSCQEARKAWLDRHGNLDEAVEECVRARRRKVHELQSLGFGPKEGSLQALFQHGGDVARALTELARQRAEPAHQRLWDRDPEPTPCWD [chain 2 Q142A, chain 2 L146A, chain 2 F149A] was run?
**A.** The response was about -3 RU.

Variants of: B2
Test: SPR; response read at end of injection (about 180 s); GST-mHOIP D-UBA UBA1mut immobilized with anti-GST antibody; read off a plot

**Q.** Which response does the source give for chain 2 SCGDPEKQAQDKMRKEGAQLASMIQEGETAGASPEEVFSALQYSGTEVPLQWLRSELSYVLEMVAELAGQQDPELGAFSCQEARKAWLDRHGNLDEAVEECVRARRRKVHELQSLGFGPKEGSLQALFQHGGDVARALTELQRQRLEPFHQRLWDRDPEPTPCWD [chain 2 R9A, chain 2 L18A, chain 2 V21A] here?
**A.** The response was about 60 RU.

Variants of: B3
Test: SPR; response read at end of injection (about 180 s); GST-mHOIP D-UBA UBA2mut immobilized with anti-GST antibody; read off a plot

**Q.** chain 3 SCGDPEKQRQDKMRKEGLQLVSMIQEGETAGASPEEVFSALQYSGTEVPLQWLRSELSYVLEMVAELAGQQDPELGAFSCQEARKAWLDRHGNLDEAVEECVRARRRKVHELQSLGFGPKEGSLQALFQHGGDVARALTELARQRAEPAHQRLWDRDPEPTPCWD [chain 3 Q142A, chain 3 L146A, chain 3 F149A] was tested. Which response did it give?
**A.** Its response is about 120 RU.

Variants of: B3
Test: SPR; response read at end of injection (about 180 s); GST-mHOIP D-UBA UBA1mut immobilized with anti-GST antibody; read off a plot

**Q.** With chain 3 SCGDPEKQAQDKMRKEGAQLASMIQEGETAGASPEEVFSALQYSGTEVPLQWLRSELSYVLEMVAELAGQQDPELGAFSCQEARKAWLDRHGNLDEAVEECVRARRRKVHELQSLGFGPKEGSLQALFQHGGDVARALTELQRQRLEPFHQRLWDRDPEPTPCWD [chain 3 R9A, chain 3 L18A, chain 3 V21A] as the variant, how does the response read?
**A.** Its response is about 170 RU.

Variants of: B4
Test: SPR; analyte 40 mM as printed in the legend; response read at end of injection (about 175 s); mHOIL-1L1-189-strep immobilized with anti-strep antibody; parent: 45; read off a plot

**Q.** With chain 1 SSGNFKKEELATRASQAAAGGDEKAAAQVAAVLAQHHVALNVQLMEAWFPPGPIRLQVTVEDATSVLSSSSSAHVSLKIHPHCSIAALQDQVFSEFGFPPAVQRWVIGRCLCMPERSLASYGVSQDGDPAFLYLLSAPR [chain 1 L14A, chain 1 I18A] as the variant, how does the response read?
**A.** Its response is about 3 RU.
